Measurements published in patent US20240124586A1 (WUXI BIOLOGICS IRELAND, published 2024).

Experiments:
human C1Q = human C1Q (human, UniProt P02745 23-245; P02746 28-253; P02747 29-245); assay: ELISA, antibody coated on the plate, C1q titrated
Protocol: ELISA Plates (Nunc) were coated with antibody samples at 3 μg/mL overnight at 4° C. After blocking and washing, C1q was gradient diluted starting from 600 μg/mL and incubated at room temperature for 2 hr. The plates were then washed and subsequently incubated with sheep anti-human C1q Ab-HRP for 1 hr. After washing, TMB substrate was added and the interaction was stopped by 2 M HCl. The absorbance at 450 nm was read using a microplate reader (Molecular Device).
The binding activity of antibodies to C1Q was tested by ELISA.

[1] = target: T1, human CD19 on CD19+ B cell lines (Ramos, Raji) (human, UniProt P15391 20-556); assay: affinity by flow cytometry on Ramos cells (bound/free versus bound)
T1 construct: whole, on cells; also called CD19+ Ramos cells; CD19+ Raji cells
T1 sequence (looked up): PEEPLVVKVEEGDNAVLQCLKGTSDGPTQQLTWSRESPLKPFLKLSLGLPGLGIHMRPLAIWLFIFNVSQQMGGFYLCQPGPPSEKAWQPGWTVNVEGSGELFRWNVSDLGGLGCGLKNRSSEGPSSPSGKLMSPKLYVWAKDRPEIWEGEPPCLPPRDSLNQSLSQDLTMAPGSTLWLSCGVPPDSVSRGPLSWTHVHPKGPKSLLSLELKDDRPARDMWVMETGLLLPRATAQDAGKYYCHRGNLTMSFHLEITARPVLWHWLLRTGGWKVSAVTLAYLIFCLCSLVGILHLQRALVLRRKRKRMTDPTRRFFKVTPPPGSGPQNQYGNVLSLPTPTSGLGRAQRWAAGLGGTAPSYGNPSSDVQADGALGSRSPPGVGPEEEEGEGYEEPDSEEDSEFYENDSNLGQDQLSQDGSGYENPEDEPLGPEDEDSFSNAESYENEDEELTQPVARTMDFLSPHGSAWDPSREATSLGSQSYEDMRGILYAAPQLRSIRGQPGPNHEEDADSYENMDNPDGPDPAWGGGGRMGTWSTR
Protocol: Binding affinity to CD3 and CD19 was determined by flow cytometry using Jurkat and Ramos cells, respectively. The cells were transferred in to 96-well U-bottom plates (BD) at a density of 5×10⁴ cells/well. Antibodies to be tested were 1:2-fold serially diluted in 1% 1×PBS/1% BSA and incubated with cells at 4° C. for 1 hr. Then, the plates were centrifuged at 1500 rpm for 4 mins and the supernatant discarded. […] The cells were washed once and re-suspended in 100 μL 1×PBS/1% BSA. Fluorescence intensity was measured by flow cytometry (BD Canto II) and analyzed by FlowJo. Fluorescence intensity was converted to bound molecules/cell based on the quantitative beads (Quantum™ MESF Kits, Bangs Laboratories). KD was calculated by Graphpad Prism5.
The bound IgG/free IgG versus bound IgG was plotted in FIGS. 46A and 46B.

Chain of human C1Q (P02745 23-245 limits assumed, chain 1 of 3): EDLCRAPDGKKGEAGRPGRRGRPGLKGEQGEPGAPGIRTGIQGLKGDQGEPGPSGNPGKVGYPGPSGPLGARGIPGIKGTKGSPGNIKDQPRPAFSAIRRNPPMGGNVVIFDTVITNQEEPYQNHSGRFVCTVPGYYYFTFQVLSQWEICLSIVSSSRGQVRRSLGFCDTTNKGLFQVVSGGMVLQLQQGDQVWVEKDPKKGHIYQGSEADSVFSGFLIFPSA
Chain of human C1Q (P02746 28-253 limits assumed, chain 2 of 3): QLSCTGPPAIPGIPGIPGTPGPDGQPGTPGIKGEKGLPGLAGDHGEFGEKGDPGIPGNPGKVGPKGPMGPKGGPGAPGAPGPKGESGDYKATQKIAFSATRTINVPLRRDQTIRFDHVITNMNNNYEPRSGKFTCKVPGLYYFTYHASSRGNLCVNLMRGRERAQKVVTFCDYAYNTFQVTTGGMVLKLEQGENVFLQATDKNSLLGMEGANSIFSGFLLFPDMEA
Chain of human C1Q (P02747 29-245 limits assumed, chain 3 of 3): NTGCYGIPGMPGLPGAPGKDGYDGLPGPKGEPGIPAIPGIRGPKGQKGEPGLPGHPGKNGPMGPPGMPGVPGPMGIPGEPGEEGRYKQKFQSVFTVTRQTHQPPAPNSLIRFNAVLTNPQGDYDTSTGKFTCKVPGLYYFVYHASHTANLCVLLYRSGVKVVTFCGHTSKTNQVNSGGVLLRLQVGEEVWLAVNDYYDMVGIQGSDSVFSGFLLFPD

binding result (human C1Q): no binding (tested: about 1500 nM C1q)
Kd [1]: 23 nM
B1: W3438-T3U4.E17-1.uIgG4.SP, bispecific anti-CD3 x CD19 (bispecific antibody)
heavy 1: QVQLVQSGAEVKKPGSSVKVSCKASGFAFTDYYIHWVRQAPGQGLEWMGWISPGNVNTKYNENFKGRVTITADKSTSTAYMELSSLRSEDTAVYYCARDGYSLYYFDYWGQGTLVTVLEDLKNVFPPEVAVFEPSEAEISHTQKATLVCLATGFYPDHVELSWWVNGKEVHSGVCTDPQPLKEQPALQDSRYALSSRLRVSATFWQNPRNHFRCQVQFYGLSENDEWTQDRAKPVTQIVSAEAWGRYGPPCPPCPAPEFLGGPSVFLFPPKPKDTLMISRTPEVTCVVVDVSQEDPEVQFNWYVDGVEVHNAKTKPREEQFNSTYRVVSVLTVLHQDWLNGKEYKCKVSNKGLPSSIEKTISKAKGQPREPQVYTLPPCQEEMTKNQVSLWCLVKGFYPSDIAVEWESNGQPENNYKTTPPVLDSDGSFFLYSRLTVDKSRWQEGNVFSCSVMHEALHNHYTQKSLSLSLGK
light 1: DIVMTQSPDSLAVSLGERATINCKSSQSLLNSRTRKNYLAWYQQKPGQPPKLLIYWASTRQSGVPDRFSGSGSGTDFTLTISSLQAEDVAVYYCTQSHTLRTFGGGTKVEIKPDIQNPDPAVYQLRDSKSSDKSVCLFTDFDSQTQVSQSKDSDVYITDKCVLDMRSMDFKSNSAVAWSQKSDFACANAFQNSIIPEDTFFPSPESS
heavy 2: QMQLVQSGPEVKKPGTSVKVSCKASGYAFTSYNMYWVRQARGQRLEWIGYIDPYNGDTTYNQKFKGRVTITRDMSTSTAYMELSSLRSEDTAVYYCLTTAYAMDYWGQGTLVTVSSASTKGPSVFPLAPCSRSTSESTAALGCLVKDYFPEPVTVSWNSGALTSGVHTFPAVLQSSGLYSLSSVVTVPSSSLGTKTYTCNVDHKPSNTKVDKRVESKYGPPCPPCPAPEFLGGPSVFLFPPKPKDTLMISRTPEVTCVVVDVSQEDPEVQFNWYVDGVEVHNAKTKPREEQFNSTYRVVSVLTVLHQDWLNGKEYKCKVSNKGLPSSIEKTISKAKGQPREPQVCTLPPSQEEMTKNQVSLSCAVKGFYPSDIAVEWESNGQPENNYKTTPPVLDSDGSFFLVSRLTVDKSRWQEGNVFSCSVMHEALHNHYTQKSLSLSLGK
light 2: DIQLTQSPSFLSASVGDRVTITCSASSTVNYMHWYQQKPGKAPKLLIYSTSNLASGVPSRFSGSGSGTEFTLTISSLQPEDFATYYCHQWSSYPYTFGQGTKLEIKRTVAAPSVFIFPPSDEQLKSGTASVVCLLNNFYPREAKVQWKVDNALQSGNSQESVTEQDSKDSTYSLSSTLTLSKADYEKHKVYACEVTHQGLSSPVTKSFNRGEC
notes: also called E17-Design_2-QQQQ (IgG4); E17-IgG4; copies: 1 + 1 + 1 + 1
